Results published in patent US20250236878A1 (priority 2019, published 2025).

B1: SEQ ID NO: 732: β-1,3 endoglucanase, Paenibacillus species (protein)
chain: AETAGTTITSMSYFSTADGPIITKSGVGQASYGFVMPIFNGGSATWNDVAQDLGVKVKVNGSWVDIDSVSSFVYNQNWGHWNDGGFTGYWFTLSATTEIQLYSKANEVTLEYSLVFQNINKTTITAMTPTQGPQITAGFTGGAGFTYPIFNHDPAITYAAVADDLKVYVKPVNSSQWIDIDNNAASGWIYDQNFGQFTDGGGGYWFNVTESINVKLESKTSSTNIVYTISFNEPVRNSYVLTPYEGTTFTADASGAIGIPLPKIDGGAPIGTELGNFVYQININGQWVDLDNSSQSGFVYSANGYNNMSAANQWGYWADHIYGLWFQPIQVDMQIRIGYPLNGQAGGSVGSNFVNYTLIGNPDAPRPDVNDQEDIPIGTPNDSAIEGMNLIWQDEFNGTALDQSKWNYETGYYLNDDPNTWGWGNSELQHYTDRAQNVFVQDGKLNIKALNEPKSFPQDPSRYAQYSSGKINTKDHFSLKYGRVDFRAKLPTGNGIWPALWMLPQDNVYGTWASSGEIDVMEAKGRLPGSTSGAVHFGGQWPTNRYLSGEYHFPEGQTFANDYHVYSVVWEEDNIKWYVDGKFFFKVTRDQWYSAAAPNNPNAPFDQPFYLIMNLAIGGTFDGGRTPDPSDIPATMQVDYVRVYKEGEGGGQNPGNVPVTGVTVNPTTAQVEVGQSVQLNASVAPSNATNKQVTWSVSGSSIASVSPNGLVTGLAQGTTTVTATTADGNKAASATITVAPAPSTVIVIGDEVKGLKKIGDDLLFYVNGATFADLHYKVNNGGQLNVAMAPTGNGNYTYPVHNLKHGDTVEYFFTYNPGQGALDTPWQTYVHGVTQGTPE
modifications: Paenibacillus spp.
notes: β-1,3 endoglucanase, Paenibacillus species
B2: endochitinase (SEQ ID NO: 778): endochitinase as printed in b921; probably a misprint for SEQ ID NO: 777 (protein, listed as Serratia marcescens)
chain: MSTRKAVIGYYFIPTNQINNYTETDTSVVPFPVSNITPAKAKQLTHINFSFLDINSNLECAWDPATNDAKARDVVNRLTALKAHNPSLRIMFSIGGWYYSNDLGVSHANYVNAVKTPASRAKFAQSCVRIMKDYGFDGVDIDWEYPQAAEVDGFIAALQEIRTLLNQQTVADGRQALPYQLTIAGAGGAFFLSRYYSKLAQIVAPLDYINLMTYDLAGPWEKVTNHQAALFGDAAGPTFYNALREANLGWSWEELTRAFPSPFSLTVDAAVQQHLMMEGVPSAKIVMGVPFYGRAFKGVSGGNGGQYSSHSTPGEDPYPSTDYWLVGCEECVRDKDPRIASYRQLEQMLQGNYGYQRLWNDKTKTPYLYHAQNGLFVTYDDAESFKYKAKYIKQQQLGGVMFWHLGQDNRNGDLLAALDRYFNAADYDDSQLDMGTGLRYTGVGPGNLPIMTAPAYVPGTTYAQGALVSYQGYVWQTKWGYITSAPGSDSAWLKVGRVA
B3: SEQ ID NO: 772: β-1,3 endoglucanase, Cellulosimicrobium cellulans DK1 (protein)
chain: APGDLLWSDEFDGAAGSAPNPAVWNHETGAHGWGNAELQNYTASRANSALDGQGNLVITARREGDGSYTSARMTTQGKYQPQYGRIEARIQIPRGQGIWPAFWMLGGSFPGTPWPSSGEIDIMENVGFEPHRVHGTVHGPGYSGGSGITGMYQHPQGWSFADTFHTFAVDWKPGEITWFVDGQQFHRVTRASVGANAWVFDQPFFLILNVAVGGQWPGYPDGTTQLPQQMKVDYVRVYDNGSGSSNPGNPGTGLPTGTGAVRAANGMCIDVPWADPTDGNPVQIVTCSGNAAQTWTRGSDGTVRALGKCLDVRDGSTTRGAAVQVWTCNGTGAQKWAYDAGSKALRNPQSGLCLDATGGAPLHDGQRLQTWTCNGTTAQQWTL
modifications: Cellulosimicrobium cellulans strain DK-1
notes: β-1,3 endoglucanase, Cellulosimicrobium cellulans DK1
B4: β-1,3-endoglucanase (bglH) Paenibacillus immobilized enzyme (SEQ ID NO: 732) (protein)
chain: B1 chain
modifications: immobilized; Paenibacillus spp.
B5: Endochitinase (ChiC) Bacillus thuringiensis immobilized enzyme (SEQ ID NO: 777) (protein, listed as Bacillus thuringiensis)
chain: DSPKQSQKIVGYFPSWGVYGRNYQVADIDASKLTHLNYAFADICWKGKHGNPSTHPDNPNKQTWNCKESGVPLQNKEVPNGTLVLGEPWADVTKSYPGSGTTWEDCDKYARCGNFGELKRLKAKYPHLKTIISVGGWTWSNRFSDMAADEKTRKVFAESTVAFLRAYGFDGVDLDWEYPGVETIPGGSYRPEDKQNFTLLLQDVRNALNKAGAEDGKQYLLTIASGASQRYADHTELKKISQILDWINIMTYDFHGGWEATSNHNAALYKDPNDPAANTNFYVDGAIDVYTNEGVPVDKLVLGVPFYGRGWKSCGKENNGQYQPCKPGSDGKLASKGTWDDYSTGDTGVYDYGDLTANYVNKNGFVRYWNDTAKVPYLYNATTGTFISYDDNESMKYKTDYIKTKGLSGAMFWELSGDCRTSPKYSCSGPKLLDTLVKELLGGPINQKDTEPPTNVKNIIVTNKTSSSVQLSWTASTDNVGVTEYEITAGEEKWSATTNSITIKNLKPNTEYTFSVIAKDASGNKSHPTALTVKTDEANTTPPDGNGTATFSVTSNWGSGYNFSIIIKNNGTIPIKNWKLEFDYSGNLTQVWDSKISSKTNNHYVITNAGWNGEIPPGGSITIGGAGTGNPAELLNAVISEN
modifications: immobilized
B6: β-1,3-endoglucanase (DK-1) Cellulosimicrobium cellulans (SEQ ID NO: 772) (protein)
chain: B3 chain
modifications: Cellulosimicrobium cellulans strain DK-1

Tested on: Cladosporium cladosporioides
Format: in vivo

| Molecule | mold growth relative to the surfactant only control (in vivo) [%] | Observed mold growth spots (out of 18 inoculated) (6 days) | Percent of mold growth relative to surfactant only control (6 days) [%] | further results |
| --- | --- | --- | --- | --- |
| B1 | 61 | – | – | – |
| B2 | 83 | – | – | – |
| B3 | – | – | – | mold growth compared to the surfactant control treatment (in vivo): 85% |
| B4 | – | 11 spots (out of 18 inoculated) | 61 | – |
| B5 | – | 15 spots (out of 18 inoculated) | 83 | – |
| B6 | – | 12 spots (out of 18 inoculated) | – | Percent of mold growth relative to control (mold only) (6 days): 85% |
